Data: patent US20230149462A1 (JUNO THERAPEUTICS, published 2023)

T1: human BCMA (human, UniProt Q02223 1-54, limits assumed)
T1 construct: also called B-cell maturation antigen; human BCMA polypeptide
T1 sequence: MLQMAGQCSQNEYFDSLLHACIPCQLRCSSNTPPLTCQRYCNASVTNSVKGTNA


Target: T1, human BCMA
Assay: CLIPS peptide epitope mapping (Pepscan)
Procedure: Epitopes recognized, e.g., specifically bound by exemplary anti-BCMA scFv clones, were determined based on full discontinuous epitope mapping by Chemical Linkage of Peptides onto Scaffolds (CLIPS; Pepscan Presto BV, Lelystad, The Netherlands; see, e.g., Timmerman et al., (2007) J. Mol. Recognit. 20: 283-329). […] In some aspects, such antibodies recognize a non-linear or linear epitope including residues of such peptide of SEQ ID NO: 160, and in some aspects recognize a non-linear epitope further including residues of CIPCQLR (set forth in SEQ ID NO:159), […] and/or SVTNSVK (set forth in SEQ ID NO:161).

Binder	binding result
BCMA-23 scFv (scFv) scFv: EVQLVESGGGLVKPGGSLRLSCAASGFTFSDYYMSWIRQAPGKGLEWVSYISSSGSTIYYADSVKGRFTISRDNAKNSLYLQMNSLRAEDTAVYYCAKVDGDYTEDYWGQGTLVTVSSGGGGSGGGGSGGGGSQSALTQPASVSGSPGQSITISCTGSSSDVGKYNLVSWYQQPPGKAPKLIIYDVNKRPSGVSNRFSGSKSGNTATLTISGLQGDDEADYYCSSYGGSRSYVFGTGTKVTVL	binds
BCMA-52-scFv-mFc (Fc fusion, not shown: mFc portion named in the label) SYELTQPPSASGTPGQRVTMSCSGTSSNIGSHSVNWYQQLPGTAPKLLIYTNNQRPSGVPDRFSGSKSGTSASLAISGLQSEDEADYYCAAWDGSLNGLVFGGGTKLTVLGSRGGGGSGGGGSGGGGSLEMAEVQLVQSGAEVKKPGESLKISCKGSGYSFTSYWIGWVRQMPGKGLEWMGIIYPGDSDTRYSPSFQGHVTISADKSISTAYLQWSSLKASDTAMYYCARYSGSFDNWGQGTLVTVSS	binds
BCMA-55-scFv (scFv, also called BCMA-55-scFV-mFc) scFv: QSALTQPASVSASPGQSIAISCTGTSSDVGWYQQHPGKAPKLMIYEDSKRPSGVSNRFSGSKSGNTASLTISGLQAEDEADYYCSSNTRSSTLVFGGGTKLTVLGSRGGGGSGGGGSGGGGSLEMAEVQLVQSGAEMKKPGASLKLSCKASGYTFIDYYVYWMRQAPGQGLESMGWINPNSGGTNYAQKFQGRVTMTRDTSISTAYMELSRLRSDDTAMYYCARSQRDGYMDYWGQGTLVTVSS	binds
BCMA-25 scFv (scFv) scFv: EVQLVQSGGGLVQPGRSLRLSCTASGFTFGDYAMSWFRQAPGKGLEWVGFIRSKAYGGTTEYAASVKGRFTISRDDSKSIAYLQMNSLKTEDTAVYYCAAWSAPTDYWGQGTLVTVSSGGGGSGGGGSGGGGSDIQMTQSPAFLSASVGDRVTVTCRASQGISNYLAWYQQKPGNAPRLLIYSASTLQSGVPSRFRGTGYGTEFSLTIDSLQPEDFATYYCQQSYTSRQTFGPGTRLDIK	binds
BCMA-26 scFv (scFv) scFv: EVQLVESGGGLVKPGGSLRLSCAASGFTFSDYYMSWIRQAPGKGLEWVSYISSSGSTIYYADSVKGRFTISRDNAKNSLYLQMNSLRAEDTAVYYCAKVDGPPSFDIWGQGTMVTVSSGGGGSGGGGSGGGGSSYVLTQPPSVSVAPGQTARITCGANNIGSKSVHWYQQKPGQAPMLVVYDDDDRPSGIPERFSGSNSGNTATLTISGVEAGDEADYFCHLWDRSRDHYVFGTGTKLTVL	binds
